# What was measured:
# [1] = test system: HeLa Kyoto; test: solubility in G1/S (NP-40 vs SDS abundance) (log2 ratio); higher = more soluble; conditions: cell cycle stage: G1/S
# [2] = test system: HeLa Kyoto; test: melting temperature (median over replicates), in situ; higher = more thermally stable
# [3] = test system: HeLa Kyoto; test: solubility change mitosis vs G1/S (difference of NP-40 vs SDS log2 ratios) (log2 ratio difference); higher = more soluble in mitosis
# 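For melting temperature (median over replicates), in situ in this document: HeLa Kyoto cells synchronized by double thymidine or nocodazole block, proteins quantified by TMT10plex mass spectrometry, three independent biological replicates.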
# 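For solubility change mitosis vs G1/S (difference of NP-40 vs SDS log2 ratios) in this document: synchronized HeLa Kyoto cells (double thymidine block for G1/S, nocodazole release for mitosis), protein amounts in NP-40 versus SDS lysates quantified by mass spectrometry, three biological replicates.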
# 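For solubility in G1/S (NP-40 vs SDS abundance) in this document: HeLa Kyoto cells arrested at G1/S by double thymidine block, proteins quantified by TMT10plex mass spectrometry in mild NP-40 versus SDS extracts, three biological replicates.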
# Chain of GNG12 (chain, as listed by the source): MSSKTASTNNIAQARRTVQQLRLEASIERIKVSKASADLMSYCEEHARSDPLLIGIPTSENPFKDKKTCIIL
# Chain of HMGN3 (chain, as listed by the source): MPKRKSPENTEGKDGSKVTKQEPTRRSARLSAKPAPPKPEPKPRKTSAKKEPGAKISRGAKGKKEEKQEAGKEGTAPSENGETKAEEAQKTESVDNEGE
# Chain of DNAJC19 (chain, as listed by the source): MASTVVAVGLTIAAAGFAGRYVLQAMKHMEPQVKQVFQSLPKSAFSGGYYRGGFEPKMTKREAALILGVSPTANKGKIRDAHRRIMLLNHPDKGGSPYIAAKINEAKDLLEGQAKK
# Chain of GNPTG (chain, as listed by the source): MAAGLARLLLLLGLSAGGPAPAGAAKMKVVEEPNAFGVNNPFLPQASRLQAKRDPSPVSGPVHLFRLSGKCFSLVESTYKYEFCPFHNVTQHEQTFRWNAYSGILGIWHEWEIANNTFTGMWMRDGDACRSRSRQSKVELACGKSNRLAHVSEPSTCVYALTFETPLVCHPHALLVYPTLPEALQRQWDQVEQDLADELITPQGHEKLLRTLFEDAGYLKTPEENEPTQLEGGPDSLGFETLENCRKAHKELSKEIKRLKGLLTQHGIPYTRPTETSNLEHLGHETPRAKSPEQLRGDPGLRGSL
# Chain of DNAJC15 (chain, as listed by the source): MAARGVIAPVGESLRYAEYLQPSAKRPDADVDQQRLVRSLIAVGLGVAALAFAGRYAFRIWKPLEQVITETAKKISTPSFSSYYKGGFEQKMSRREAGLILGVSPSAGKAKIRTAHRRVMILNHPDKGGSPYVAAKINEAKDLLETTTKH
# Chain of STK25 (chain, as listed by the source): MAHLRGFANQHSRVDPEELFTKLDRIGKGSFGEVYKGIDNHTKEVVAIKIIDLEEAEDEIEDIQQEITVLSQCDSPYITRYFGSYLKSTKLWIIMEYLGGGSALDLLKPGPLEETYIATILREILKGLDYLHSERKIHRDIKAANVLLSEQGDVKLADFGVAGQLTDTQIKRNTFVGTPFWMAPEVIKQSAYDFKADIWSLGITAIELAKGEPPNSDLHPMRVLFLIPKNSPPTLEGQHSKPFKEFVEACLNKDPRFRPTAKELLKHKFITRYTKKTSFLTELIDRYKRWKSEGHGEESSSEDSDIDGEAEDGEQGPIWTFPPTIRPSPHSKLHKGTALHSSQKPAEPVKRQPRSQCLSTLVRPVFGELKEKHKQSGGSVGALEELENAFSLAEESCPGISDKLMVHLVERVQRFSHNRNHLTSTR
# Chain of POMGNT1 (chain, as listed by the source): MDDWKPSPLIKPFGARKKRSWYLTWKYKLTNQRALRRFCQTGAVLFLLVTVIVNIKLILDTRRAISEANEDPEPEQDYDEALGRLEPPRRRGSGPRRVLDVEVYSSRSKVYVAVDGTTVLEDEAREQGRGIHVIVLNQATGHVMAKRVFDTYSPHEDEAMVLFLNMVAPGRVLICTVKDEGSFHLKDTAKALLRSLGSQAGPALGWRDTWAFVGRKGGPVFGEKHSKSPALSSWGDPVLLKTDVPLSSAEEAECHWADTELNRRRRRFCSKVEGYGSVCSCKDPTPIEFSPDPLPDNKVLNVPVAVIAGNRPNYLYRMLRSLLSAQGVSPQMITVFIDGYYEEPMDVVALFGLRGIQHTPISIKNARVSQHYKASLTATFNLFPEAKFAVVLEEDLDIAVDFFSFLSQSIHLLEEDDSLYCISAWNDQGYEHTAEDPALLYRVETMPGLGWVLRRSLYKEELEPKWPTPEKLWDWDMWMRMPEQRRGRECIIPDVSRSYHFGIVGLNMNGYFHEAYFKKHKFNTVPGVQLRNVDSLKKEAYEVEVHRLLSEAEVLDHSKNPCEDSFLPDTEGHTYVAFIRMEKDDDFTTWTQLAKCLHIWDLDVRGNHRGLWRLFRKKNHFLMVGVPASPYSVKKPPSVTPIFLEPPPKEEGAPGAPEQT
# Chain of SENP3 (chain, as listed by the source): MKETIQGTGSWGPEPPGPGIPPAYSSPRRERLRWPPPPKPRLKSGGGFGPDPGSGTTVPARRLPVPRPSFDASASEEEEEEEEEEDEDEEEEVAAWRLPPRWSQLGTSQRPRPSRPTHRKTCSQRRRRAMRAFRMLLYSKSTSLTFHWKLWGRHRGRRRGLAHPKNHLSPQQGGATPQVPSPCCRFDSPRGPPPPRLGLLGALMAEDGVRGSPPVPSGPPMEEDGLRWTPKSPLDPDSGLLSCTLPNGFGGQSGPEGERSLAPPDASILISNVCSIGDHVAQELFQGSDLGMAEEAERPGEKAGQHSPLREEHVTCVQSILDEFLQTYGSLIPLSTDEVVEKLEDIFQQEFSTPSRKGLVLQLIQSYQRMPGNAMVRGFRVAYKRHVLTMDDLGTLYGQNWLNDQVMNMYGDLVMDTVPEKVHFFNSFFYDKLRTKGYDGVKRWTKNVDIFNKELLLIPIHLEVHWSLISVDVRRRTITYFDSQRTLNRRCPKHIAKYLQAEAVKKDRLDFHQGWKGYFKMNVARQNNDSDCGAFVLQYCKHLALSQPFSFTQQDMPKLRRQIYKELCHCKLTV
Substance,solubility in G1/S (log2) [1],melting temperature ([2]; cell cycle stage: mitosis) [°C],solubility change mitosis (log2) [3],melting temperature ([2]; cell cycle stage: G1/S) [°C]
ABTB2,0.00296,48.8,-0.181,–
BCL9L,0.294,54.4,0.083,55.7
CHD8,-0.156,50.1,-0.0952,46.5
CHD9,-0.312,50.1,0.0275,–
DNAJC15,0.11,51.2,-0.164,51
DNAJC19,-0.0616,53.5,0.348,53.4
GNG12,-1.84,54,0.506,52.4
GNPTG,-0.582,53.9,0.688,54
H2AFV,-0.332,–,0.429,52.5
HMGN3,-0.266,56.8,1.55,–
MAAAAAGAGSGPWAAQEKQFPPALLSFFIYNPRFGPREGQEENKILFYHPNEVEKNEKIRNVGLCEAIVQFTRTFSPSKPAKSLHTQKNRQFFNEPEENFWMVMVVRNPIIEKQSKDGKPVIEYQEEELLDKVYSSVLRQCYSMYKLFNGTFLKAMEDGGVKLLKERLEKFFHRYLQTLHLQSCDLLDIFGGISFFPLDKMTYLKIQSFINRMEESLNIVKYTAFLYNDQLIWSGLEQDDMRILYKYLTTSLFPRHIEPELAGRDSPIRAEMPGNLQHYGRFLTGPLNLNDPDAKCRFPKIFVNTDDTYEELHLIVYKAMSAAVCFMIDASVHPTLDFCRRLDSIVGPQLTVLASDICEQFNINKRMSGSEKEPQFKFIYFNHMNLAEKSTVHMRKTPSVSLTSVHPDLMKILGDINSDFTRVDEDEEIIVKAMSDYWVVGKKSDRRELYVILNQKNANLIEVNEEVKKLCATQFNNIFFLD [CCZ1],0.0726,51.8,-0.169,50.9
MAAAGARPVELGFAESAPAWRLRSEQFPSKVGGRPAWLGAAGLPGPQALACELCGRPLSFLLQVYAPLPGRPDAFHRCIFLFCCREQPCCAGLRVFRNQLPRKNDFYSYEPPSENPPPETGESVCLQLKSGAHLCRVCGCLGPKTCSRCHKAYYCSKEHQTLDWRLGHKQACAQPDHLDHIIPDHNFLFPEFEIVIETEDEIMPEVVEKEDYSEIIGSMGEALEEELDSMAKHESREDKIFQKFKTQIALEPEQILRYGRGIAPIWISGENIPQEKDIPDCPCGAKRILEFQVMPQLLNYLKADRLGKSIDWGILAVFTCAESCSLGTGYTEEFVWKQDVTDTP [PDCD2],-0.116,48.3,-0.0555,48.5
MAAPEAPPLDRVFRTTWLSTECDSHPLPPSYRKFLFETQAADLAGGTTVAAGNLLNESEKDCGQDRRAPGVQPCRLVTMTSVVKTVYSLQPPSALSGGQPADTQTRATSKSLLPVRSKEVDVSKQLHSGGPENDVTKITKLRRENGQMKATDTATRRNVRKGYKPLSKQKSEEELKDKNQLLEAVNKQLHQKLTETQGELKDLTQKVELLEKFRDNCLAILESKGLDPALGSETLASRQESTTDHMDSMLLLETLQEELKLFNETAKKQMEELQALKVKLEMKEERVRFLEQQTLCNNQVNDLTTALKEMEQLLEM [KNSTRN],0.269,50.5,0.517,48.7
MAAPEAWRARSCWFCEVAAATTMEATSREAAPAKSSASGPNAPPALFELCGRAVSAHMGVLESGVWALPGPILQSILPLLNIYYLERIEETALKKGLSTQAIWRRLWDELMKTRPSSLESVTCWRAKFMEAFFSHVLRGTIDVSSDRRLCDQRFSPLLHSSRHVRQLTICNMLQGATELVAEPNRRVLETLASSLHTLKFRHLLFSDVAAQQSLRQLLHQLIHHGAVSQVSLYSWPVPESALFILILTMSAGFWQPGPGGPPCRLCGEASRGRAPSRDEGSLLLGSRRPRRDAAERCAAALMASRRKSEAKQMPRAAPATRVTRRSTQESLTAGGTDLKRELHPPATSHEAPGTKRSPSAPAATSSASSSTSSYKRAPASSAPQPKPLKRFKRAAGKKGARTRQGPGAESEDLYDFVFIVAGEKEDGEEMEIGEVACGALDGSDPSCLGLPALEASQRFRSISTLELFTVPLSTEAALTLCHLLSSWVSLESLTLSYNGLGSNIFRLLDSLRALSGQAGCRLRALHLSDLFSPLPILELTRAIVRALPLLRVLSIRVDHPSQRDNPGVPGNAGPPSHIIGDEEIPENCLEQLEMGFPRGAQPAPLLCSVLKASGSLQQLSLDSATFASPQDFGLVLQTLKEYNLALKRLSFHDMNLADCQSEVLFLLQNLTLQEITFSFCRLFEKRPAQFLPEMVAAMKGNSTLKGLRLPGNRLGNAGLLALADVFSEDSSSSLCQLDISSNCIKPDGLLEFAKRLERWGRGAFGHLRLFQNWLDQDAVTAREAIRRLRATCHVVSDSWDSSQAFADYVSTM [LRRC41],-0.31,49.5,0.0944,47.9
MAAPSGTVSDSESSNSSSDAEELERCREAAMPAWGLEQRPHVAGKPRAGAANSQLSTSQPSLRHKVNEHEQDGNELQTTPEFRAHVAKKLGALLDSFITISEAAKEPAKAKVQKVALEDDGFRLFFTSVPGGREKEESPQPRRKRQPSSSSEDSDEEWRRCREAAVSASDILQESAIHSPGTVEKEAKKKRKLKKKAKKVASVDSAVAATTPTSMATVQKQKSGELNGDQVSLGTKKKKKAKKASETSPFPPAKSATAIPAN [C12ORF43],-0.08,56.9,0.379,56.1
MAAQGAAAAVAAGTSGVAGEGEPGPGENAAAEGTAPSPGRVSPPTPARGEPEVTVEIGETYLCRRPDSTWHSAEVIQSRVNDQEGREEFYVHYVGFNRRLDEWVDKNRLALTKTVKDAVQKNSEKYLSELAEQPERKITRNQKRKHDEINHVQKTYAEMDPTTAALEKEHEAITKVKYVDKIHIGNYEIDAWYFSPFPEDYGKQPKLWLCEYCLKYMKYEKSYRFHLGQCQWRQPPGKEIYRKSNISVYEVDGKDHKIYCQNLCLLAKLFLDHKTLYFDVEPFVFYILTEVDRQGAHIVGYFSKEKESPDGNNVACILTLPPYQRRGYGKFLIAFSYELSKLESTVGSPEKPLSDLGKLSYRSYWSWVLLEILRDFRGTLSIKDLSQMTSITQNDIISTLQSLNMVKYWKGQHVICVTPKLVEEHLKSAQYKKPPITVDSVCLKWAPPKHKQVKLSKK [KAT8],-0.134,49.9,-0.249,–
MAASRYRRFLKLCEEWPVDETKRGRDLGAYLRQRVAQAFREGENTQVAEPEACDQMYESLARLHSNYYKHKYPRPRDTSFSGLSLEEYKLILSTDTLEELKEIDKGMWKKLQEKFAPKGPEEDHKA [UQCC2],0.0537,–,0.507,45.6
MAATMKKAAAEDVNVTFEDQQKINKFARNTSRITELKEEIEVKKKQLQNLEDACDDIMLADDDCLMIPYQIGDVFISHSQEETQEMLEEAKKNLQEEIDALESRVESIQRVLADLKVQLYAKFGSNINLEADES [PFDN4],-0.219,53.5,0.523,55.5
MAAVFDLDLETEEGSEGEGEPELSPADACPLAELRAAGLEPVGHYEEVELTETSVNVGPERIGPHCFELLRVLGKGGYGKVFQVRKVQGTNLGKIYAMKVLRKAKIVRNAKDTAHTRAERNILESVKHPFIVELAYAFQTGGKLYLILECLSGGELFTHLEREGIFLEDTACFYLAEITLALGHLHSQGIIYRDLKPENIMLSSQGHIKLTDFGLCKESIHEGAVTHTFCGTIEYMAPEILVRSGHNRAVDWWSLGALMYDMLTGSPPFTAENRKKTMDKIIRGKLALPPYLTPDARDLVKKFLKRNPSQRIGGGPGDAADVQRHPFFRHMNWDDLLAWRVDPPFRPCLQSEEDVSQFDTRFTRQTPVDSPDDTALSESANQAFLGFTYVAPSVLDSIKEGFSFQPKLRSPRRLNSSPRAPVSPLKFSPFEGFRPSPSLPEPTELPLPPLLPPPPPSTTAPLPIRPPSGTKKSKRGRGRPGR [RPS6KB2],-0.0277,50.9,0.0325,51.3
MAENHCELLSPARGGIGAGLGGGLCRRCSAGLGALAQRPGSVSKWVRLNVGGTYFLTTRQTLCRDPKSFLYRLCQADPDLDSDKDETGAYLIDRDPTYFGPVLNYLRHGKLVINKDLAEEGVLEEAEFYNITSLIKLVKDKIRERDSKTSQVPVKHVYRVLQCQEEELTQMVSTMSDGWKFEQLVSIGSSYNYGNEDQAEFLCVVSKELHNTPYGTASEPSEKAKILQERGSRM [KCTD5],0.136,57.5,-0.0362,56.7
MAEPDYIEDDNPELIRPQKLINPVKTSRNHQDLHRELLMNQKRGLAPQNKPELQKVMEKRKRDQVIKQKEEEAQKKKSDLEIELLKRQQKLEQLELEKQKLQEEQENAPEFVKVKGNLRRTGQEVAQAQES [FAM107B],0.00364,–,0.435,57.3
MWYHRLSHLHSRLQDLLKGGVIYPALPQPNFKSLLPLAVHWHHTASKSLTCAWQQHEDHFELKYANTVMRFDYVWLRDHCRSASCYNSKTHQRSLDTASVDLCIKPKTIRLDETTLFFTWPDGHVTKYDLNWLVKNSYEGQKQKVIQPRILWNAEIYQQAQVPSVDCQSFLETNEGLKKFLQNFLLYGIAFVENVPPTQEHTEKLAERISLIRETIYGRMWYFTSDFSRGDTAYTKLALDRHTDTTYFQEPCGIQVFHCLKHEGTGGRTLLVDGFYAAEQVLQKAPEEFELLSKVPLKHEYIEDVGECHNHMIGIGPVLNIYPWNKELYLIRYNNYDRAVINTVPYDVVHRWYTAHRTLTIELRRPENEFWVKLKPGRVLFIDNWRVLHGRECFTGYRQLCGCYLTRDDVLNTARLLGLQA [TMLHE],-0.167,–,0.114,–
NUFIP1,-0.519,–,0.162,–
POMGNT1,-0.257,–,-0.0514,–
SENP3,-1.5,–,1.04,–
SIPA1L2,-0.433,–,0.275,–
STK25,0.291,–,-0.12,–
SYNJ2,-0.61,–,0.309,–
WDFY3,-0.364,–,0.0228,–

# — the supplement of paper PMC5998384
